Reference: the DeepSol protein solubility set

Experiment: soluble on expression in E. coli; label from the status in PepcDB or PDB records

Soluble on expression in E. coli, not soluble:
MGSDKIHHHHHHMFLLPSTITRNVIFISHATPEDNDFTIWLASRLQAEGFEVWIDKQALVGGEKFWQEIDQVIRHKAVKFLLVYSENICYQKQRGILKNGVAKEISMAEGIATTNGLKDFMILLNVDGSEYNLFIGADTLNQVPFYENWAGGYSQLRKKFKKEGLEPTGSPVGDFSKWYEDEYVIHHGIENLHEIYYDCWWPIPELPESFFVYIFPNNVVASQVHQRSKYPTGKASNILASFYDTSEFEVEIDGQLERIPFTAKHEIKVSDVIARTVRLGFPGTRDVENYFRSLLQRTFHLIMKERHLHWYEMANMKQAYFFSAKSHPKIKFEYPHRATKAGKSKVIFGKHLSSFWHYALSAKPIITPQLAFGLKSHIVFTTDGVKLWDDKAKMHTARRRKGRLMFNEEWRDLLFAFLHALCQGGTTVNIMLNPTFELALKPWTNTYHSDFGYIEPKGQDRHDILAAEYEYQDREDIDPDEVANV
MGSDKIHHHHHHMFRLAKEELEKLGAMITATEIYQQPGLWKEAHQLYFDQLEKIESFLKSIKEKHDFVHVVFTGAGTSDFVGQSIANYLNQVNDLKHIRFSAIGTVELVSRPHDYLQADLPTILVSFARSGNSPESVAAVEVAKQLVDKLYQVTITCAPEGKLALAAEGDVENLLLLQPAGSNDKGFAMTGSYSCMALTALLVFSPASQEEKAAWVEIIARLGQDVLDREDYVQDLINLDFERVIYLGSGGFYGLAHEAQLKILELTAGKIATMYESPLGFRHGPKSFINEKTLIFLFASNDAYTRQYDVDLLNEVHGDGIAERIVALSADKLVGTEAANFVLAEGGADLPDVFLTFPYILFAQTVSIMAAIKCNNLPDTPSPTGTVNRVVQGVIIHPLEK
MGSDKIHHHHHHMGDLTADVLVIGGGTAGFGAAVAAGRLGLDVVLLEAGTKVGGVMAFCPGMPWGAAYPQDESIGGLMQELTDRLMGMDPPMAEKRPCTLENFGPEIQYDHDAATTMMFEMLEEAGVRVFLGAVAFAPVMEGNRIAAVEFFDRRCPQRIAAKIVIDCSGDGDISAKAGVPFTLGDGQGNMMAVTLSFFMEGADWDRVFAENDPYFRRYAAKGIAEGRLHPHLAQLYLMKGFHPGTVFCNSVAIRGVDGTDPADVTRATQEGRRRCLQLAQFLRADVPGFEAAHMSQLGPTVGVRETRKLEGMYKVTGADLAAGTKFADGIVACDNPIDDVMRTSDQMTHDAMVERGGYYTIPFRSLLPKAVANLMFAGRILSADLVAFASVRGMPQCMAMGQATGTAAHLAIRDGAPVQQVDRAELVKLLSEQGVSRLLS
MGSDKIHHHHHHMGEIMKFYDREKELNYLKTYCQLEPNSILFVYGPKSSGKSTVMRRVIKELENSNIVFFYYNLRKYATPTRDEFLRVFFEKSDKKYLLNKLELNLGVCKFGIEENFDFNNLCLNDVFAKINESINAVVEEGKKPVLIIDELQKLKNIYFNGGKSLLNELFNLFVSLTKMEHLCHVICLTSDTLFIDEIYRNSTLKNASEYYLIDWLRKGTIRNILKEEGFSEEEINYALDYLSLPYEISQLINNKKLGLSVEQTIKQWINVEKDGLKYLIDTTDLDEEGLYNVLSKFKDKIKISYDKEVKKEEMKYLKFLIENEILFYDVINGIIKPTSIIEWHAIKEIINAMQ
MGSDKIHHHHHHMGELTIAKSAGFCFGVTRAVNMVYEAIEKENVPIYTYGPIIHNDEVVKDMEKNGVTVINDLDELSSHEKGVMIIRSHGISKAEYDRIKNCGFEVLNATCPFVSKIHRYVEDYSSKGYDIIIVGSPKHPEVCGIKGWADEKCHVTIINSPEDAENYMKNSTKKLCIVSQTTFNYNKFQDIVEIIAKKGYDITVLNTICNATEVRQTEARKVAQCSDVMIVIGDRHSSNTQKLFEICKNECKNTYYIQTSDEMDYTQIRSNNNVGITAGASTPNNIIEEVSKNVRNEL
MGSDKIHHHHHHMGESASGSDRSQKARGAFRVRSLQIRYKTSRPEIRQSWRSMLQRERPCKGGREDFEKGRRGNFSSPLRSVSLQGDCRTQLRSGKEALQFRETRRHTEQGGITMKVVVGIPSYNNAETISHVARTAAQGIVDFFDGDGMIVNSDGGSADGTRERFMETDTFGLPKESFVYEGLPGKGSAMRAIMEFALKQDAEAVVFLDADLRSVKPWWVERLAGPVLKGEADYVTPFYLRHRFDGTITNNVCFPMTAVLYGKKVRQPIGGDFGVGRKLLEIYLGKPKEIWNTDVARFGIDIWMTTTAINESGRVVQAALGTKVHDVKDPGKHLKGMFLQVVGTLFELVITYENVWKEIWKIEDVPIYGETPQEEVPSMSIDIGNLKKLARETLEEVEYIDRGILSEVKESGTLSLSSWVDTLYRSAVQYRKTRDKKVVENLLPFYFARTARFAEEVKSLSDEEAERYVYEQLDVFLEKKHSLREEWKVEDKR
MGSDKIHHHHHHMGFLAREKVHLKKVVIGGSQDWLKHSYKLFKAIMNRIFGYGNKKSHDQLLQESNQSMNQAQQSLSNRISQLDTQIAQLNFQLQNIQKNLQRSNNKQPSLRKQALKILNKRKQLENMKDSLDSQSWSMTQAQLTNDNLQNTMITINALKQTNNAMKAQYGKINIDKLQDMQDEMLDLIEQGDELQEVLAMNNNSGELDDISDAELDAELDALAQEDFTLPTSENSLGNDMPSYLLGANAPPAFIDEEPNLDTEDKNKALESAQ
MGSDKIHHHHHHMGIGRGYAVWSPRSIYLTDFVYANFLEELIMQTLIIYSTIDGQTLAICQKMKTIAEQAGEQVALVTLEQADALSLADFDKVLIGASIRYGKHRPELYQFVNRHHAVLDTKINGFFTVNVVARKPLKNTPETNPYMQKFLQLSLWQPQLLEVFAGKIDYPKYGFFDRTMIRFIMWMTKGPTDITGTFEFTDWEKVDAFGNRFSQH
MGSDKIHHHHHHMGIRSHLAIAAGKTSQWVLQTFFKGGSSYPGKLALKIDPKILDTLAKDYEIVVVTGTNGKTLTTALTVNILRQEFDEVLTNPTGANMEQGIVSTFLNAKAKKGQKKFAVLEIDEASLSRVTKYIQPKLFVFTNIFRDQMDRYGEIYTTYRLIMEGAAAAPEATILCNGDSPIFNSKETVNPRKYYGFNHLPPKEQLAHYNTDGVLCPKCNHILHYKMITYANLGDYYCPNCGFKRPELDVQLTEMVRMDNTSADFVIDGEEYGIAVGGMYNVYNALAATAVAEYYQVAPDKIRAGLAYDEKVFGRQETIKVGDKECTLVLVKNPVGLNQVIDMMGLAPYSFSLVSLLNANYADGIDVSWIWDGNHEAFADMDIPKVIAGGDRHEDMALRLKVAGIPEEKLLEIADLEQVISEIKTLPTDHVYILATYTAVLQLRKSLTAQGYIQGGMNGV
MGSDKIHHHHHHMGKIISKFVCHECGYETPKWLGKCPGCSAWNSLLEESISNKPLRRTAERVAAIPLNQLSAEDSPRFSSGLSEFDRVLGGGIVPGSLILLGGDPGIGKSTLLLQVAGLIAAAGKRILYLSGEESLQQIRLRASRLGINNDTIFLLNEQDIDLLHEYINDLDPDLIIIDSIQTVYSSKLSSIPGSVSQLRESTAAVMQIAKKMDKAVFLVGHVTKDGSLAGPKVLEHIVDVVVYFEGEKNFSFRLLRAAKNRFGATDEIALLEMSGQGLVEVPDPSYVFLSPGRDISSGTAIVASMEGSRPLLIEIQALVSSLGAGYPRRMVSGIDQNRLSLIIAVLEKRRGYTLSACDVYLKVSGGVFLKDPSVDLGIAAAVLSSYLEKPLAMDTVFIGEISLSGQIRPVSFLDLRLREIDRMGYKRVIVPTSPGRLAKSSHNMEILEVKSLDHFIDIVLEG
MGSDKIHHHHHHMGLNLSKGDMYKFVNYTWNPIKGKCLHDCSYCYMKQINPNANPPRLAEYELNTDLGCGRSIFIGSSTDMFAEDIPSEWIARVLDYCYQNRNMLLPNAYLLQSKNPKRFLEFINHPIMERVVFCTTIETNRFYPEIMNKAPRIDERVEAMEEIARLGRPTMVTAEPLMQFDHEEMVSFIRRCSPKLVNIGRNSCRRIVLPEPTQEEVQQLIAELKSLKSFTKVNVKDNALEWCK
MGSDKIHHHHHHMGNFLYGIDFGTSNSVLSIFDEDKNEIIETLSVPSILYFPDAYDPALPLQYYVGEDAIRYYISDGMKGRFMKSIKRVLPRTNFVETRIHTKSFNAAGLITLILKELKTKADAIIGMDCKKAIIGRPVYFDDDNTVNDAVAQKRLLQAAQQAGLSDIRFQYEPIGAAFAYERTISKKEHVLVADLGGGTTDFTFIELDPHKNNRKDRRSDIIATGGIYIGGDSFDSAFMWDKGTPYFGRGVTYESMPGKMVDVPPSFFSNICSWEKMNFFNGVKVQNDLRQYYNYSKQNDKLKNLITLTENNLGYSIFQSIEKTKVDLSIQSSSSFSYHKADIHIDEPIDLTAYNRIIQRDVTKINNYLESFLSKHAIVPESIDSLFLTGGTSMVQAIQALFKEKFPHIAITSGDNFISVSKGLAYSGYLFD
